# FireProtDB (doi:10.1021/bi00437a058)
# B1: Ribonuclease wild type, P00648 (protein)
# chain: MMKMEGIALKKRLSWISVCLLVLVSAAGMLFSTAAKTETSSHKAHTEAQVINTFDGVADYLQTYHKLPDNYITKSEAQALGWVASKGNLADVAPGKSIGGDIFSNREGKLPGKSGRTWREADINYTSGFRNSDRILYSSDWLIYKTTDHYQTFTKIR
# Conditions: Bacillus amyloliquefaciens, pH 6.3, Fluorescence, whole UniProt chain shown
# [1] = 25 °C, GdnHCl, MES 450 mM, reversible: yes (100%)
# [2] = Thermal, MES 50 mM, reversible: yes (>85%)
protein,measurement,setting,value
B1,denaturant m value,[1],4.51 kcal/mol/M
same,denaturant midpoint (higher = more stable),[1],1.97 M
same,unfolding free energy,[1],8.88 kcal/mol
same,Tm,[2],53.9 °C
same,unfolding enthalpy (van 't Hoff),[2],125 kcal/mol
